# Laboratory results: paper PMC7954794, “Protein context shapes the specificity of SH3 domain-mediated interactions in vivo” (Nature Communications, 2021)
# B1: YGL252C (protein, UniProt P32608 1-588, looked up)
# Retrograde regulation protein …: MSTLSDSDTETEVVSRNLCGIVDIGSNGIRFSISSKAAHHARIMPCVFKDRVGLSLYEVQYNTHTNAKCPIPRDIIKEVCSAMKRFKLICDDFGVPETSVRVIATEATRDAINADEFVNAVYGSTGWKVEILGQEDETRVGIYGVVSSFNTVRGLYLDVAGGSTQLSWVISSHGEVKQSSKPVSLPYGAGTLLRRMRTDDNRALFYEIKEAYKDAIEKIGIPQEMIDDAKKEGGFDLWTRGGGLRGMGHLLLYQSEGYPIQTIINGYACTYEEFSSMSDYLFLKQKIPGSSKEHKIFKVSDRRALQLPAVGLFMSAVFEAIPQIKAVHFSEGGVREGSLYSLLPKEIRAQDPLLIASRPYAPLLTEKYLYLLRTSIPQEDIPEIVNERIAPALCNLAFVHASYPKELQPTAALHVATRGIIAGCHGLSHRARALIGIALCSRWGGNIPESEEKYSQELEQVVLREGDKAEALRIVWWTKYIGTIMYVICGVHPGGNIRDNVFDFHVSKRSEVETSLKELIIDDANTTKVKEESTRKNRGYEVVVRISKDDLKTSASVRSRIITLQKKVRKLSRGSVERVKIGVQFYEE
# B2: YFR040W (protein, UniProt P43612 1-1002, looked up)
# SIT4-associating protein …: MSFWPFGQNLNHSNINKILDEYFHVLHELERINPSVGKAIPAIFNNVQERGTSDSLDSIPEEYSHGDEVKTARGDQKSRFEKDDQQERYEKEEEERSMNSSESSTTSFSSGSTSKTDLDEEDISNATAPMMVTTKNLDNSFIERMLVETELLNELSRQNKTLLDFICFGFFFDKKTNKKVNNMEYLVDQLMECISKIKTATTVDLNNLIDYQEQQQLDDSSQEDVYVESDTEQEEEKEDDNNSNNKKRRKRGSSSFGNDDINNNDDDDDANEDDESAYLTKATIISEIFSLDIWLISESLVKNQSYLNKIWSIINQPNFNSENSPLVPIFLKINQNLLLTRQDQYLNFIRTERSFVDDMLKHVDISLLMDFFLKIISTDKIESPTGIIELVYDQNLISKCLSFLNNKESPADIQACVGDFLKALIAISANAPLDDISIGPNSLTRQLASPESIAKLVDIMINQRGAALNTTVSIVIELIRKNNSDYDQVNLLTTTIKTHPPSNRDPIYLGYLLRKFSNHLSDFFQIILDIENDANIPLHENQLHEKFKPLGFERFKVVELIAELLHCSNMGLMNSKRAERIARRRDKVRSQLSHHLQDALNDLSIEEKEQLKTKHSPTRDTDHDLKNNNGKIDNDNNDNDDESDYGDEIDESFEIPYINMKQNIKLRTDPTVGDLFKIKLYDTRIVSKIMELFLTHPWNNFWHNVIFDIIQQIFNGRMDFSYNSFLVLSLFNLKSSYQFMTDIVISDEKGTDVSRFSPVIRDPNFDFKITTDFILRGYQDSYKFYELRKMNLGYMGHIVLIAEEVVKFSKLYKVELISPDIQVILQTEEWQYYSEEVLNETRMMYSKILGGGSYIDDGNGNIIPQLPDNTTVLTPNGDASNNNEILDSDTGSSNGTSGGGQLINVESLEEQLSLSTESDLHNKLREMLINRAQEDVDNKNTENGVFILGPPEDKNSNSNINNTNHNSNNSNNNDNNDNNDNDNDNTRNYNEDADNDNDYDHE
# B3: YDL146W (protein, UniProt Q12342 1-491, looked up)
# Protein LDB17: MILDPLSPNIENHTQDEIIEFWEKTESIANIPKENLDESHVNSSLVAYLKFATDSYKVFINTDRDLYRMSLILLESSLFEFKKEFCLSKLQSLLNIDLLEMNMKFIIVYILLCEAKKNVYSLEIMLKFQGFTVFYNTLYTQFAYLSKYGKERTVASKHQYNSNNSSTGTSLDSLDRSLTDIDLGIIDEMKQISTVLMDLLFQIMKYCKCVIANLQIVDDFFVYYMMESMRSDTMDDMFNNAEFKLLLALNEQYMMFAKEYDIENKVYKYLINGSVSRCFTELLLLKFNRASDPPLQIMMCKIIYLILTPRGDYSPMNFFYTNDLRVLIDVLIRELQNISEDEEVLRNTLLRVLIPLLKNTQLSKTHYRKDDLNKLLNYLSTLDNICVDSPALHEHQVTVALSRKCLQQIPWLETPSTPSDGGSSVSSNNTSRNSSIVALGTPDNQNILARKGHLYSNRELDVSAESLTKRKAKAPPPPPPPPPSRKCGTPK
# Tested on: ABP1
# Test: DHFR-PCA on solid medium, bait ABP1 (Fig. 1B)
# Assay type: cell-based, Saccharomyces cerevisiae
# Conditions: bait ABP1, label = prey; 2-4 replicates
# Description: Supplement 41467_2021_21873_MOESM8_ESM.xlsx, sheet "Fig1B" | column: medsize; medrep; Ratio; Score
row,Molecule,"medrep (log2 median colony size normalized to plate background, PCA score)"
1,B1,2.12
2,B2,2.847
3,B3,3.631
